Assay: Aldol cleavage reaction of fructose 1,6-bisphosphate, coupled with TIM/G3PDH, NADH 340 nm
Format: biochemical
Details: F1,6P2 cleaved, 37° C., 30 minutes, pH 8.0
Method: The aldolase activity of the human 35 kd protein was determined as follows, according to the method described in a reference (Novel Biochemistry Experiment Lectures, Vol. 15, Metabolism Abnormality, p. 111, edit. Biochemical Society of Japan, publish. Tokyo Kagaku Dojin-sha, Sep. 22, 1992):
Conjugated with triose phosphate isomerase (TIM) and glycerol 3-phosphate dehydrogenase (G3PDH), the aldol cleavage reaction of fructose 1,6-bisphosphate (F1, 6P2) with the 35 kd protein was determined with NADH.
A reaction liquid having the composition mentioned below was prepared, and reacted at 37° C. for 30 minutes. The enzymatic reaction was monitored through the reduction in the 340 nm absorbance owing to the oxidation of NADH in the reaction liquid. The enzymatic reaction was indicated by the number of mols of F1, 6P2, per mg of the protein, cleaved within 1 minute (μmol/min/mg protein).
Reaction liquid 200 μl: 0.25 mM tris HCl buffer (pH 8.0), 0.15 M NaCl, 0.5 mM F1, 6P2 (from Sigma), human 35 kd protein, human liver TIM (500 μg/ml), rabbit skeletal muscle G3PDH (8 units/ml, from Sigma), 0.3 mM NADH (from Nakarai).
For comparison, a commercial product aldolase, Sigma's rabbit skeletal muscle aldolase (A-type aldolase), and an enzyme-free system were tested in the same manner.

Sigma's commercial product aldolase: commercial product aldolase, Sigma's rabbit skeletal muscle aldolase (A-type aldolase)
Aldolase Activity (μmol/min/mg protein): 0.278 μmol/min/mg protein

Source: patent US7371842B2, “Polynucleotide encoding a 35 KDA protein thats binds to WF00144” (Astellas Pharma Inc., priority 2002, dated 2008)
